Series [1] concerns the target T1, HIF-1α;ARNT (HIF-1β) (human;human?, UniProt Q16665;P27540 1-826;1-789, |). Briefly: competition.
For series [2], the target named is T1, HIF-1α;ARNT (HIF-1β). As to the kind of experiment: competition. This is another data set of the same source.

Like-named read-outs stand apart in the source and are kept apart here.

T1 sequence (Q16665 whole entry, chain 1 of 2): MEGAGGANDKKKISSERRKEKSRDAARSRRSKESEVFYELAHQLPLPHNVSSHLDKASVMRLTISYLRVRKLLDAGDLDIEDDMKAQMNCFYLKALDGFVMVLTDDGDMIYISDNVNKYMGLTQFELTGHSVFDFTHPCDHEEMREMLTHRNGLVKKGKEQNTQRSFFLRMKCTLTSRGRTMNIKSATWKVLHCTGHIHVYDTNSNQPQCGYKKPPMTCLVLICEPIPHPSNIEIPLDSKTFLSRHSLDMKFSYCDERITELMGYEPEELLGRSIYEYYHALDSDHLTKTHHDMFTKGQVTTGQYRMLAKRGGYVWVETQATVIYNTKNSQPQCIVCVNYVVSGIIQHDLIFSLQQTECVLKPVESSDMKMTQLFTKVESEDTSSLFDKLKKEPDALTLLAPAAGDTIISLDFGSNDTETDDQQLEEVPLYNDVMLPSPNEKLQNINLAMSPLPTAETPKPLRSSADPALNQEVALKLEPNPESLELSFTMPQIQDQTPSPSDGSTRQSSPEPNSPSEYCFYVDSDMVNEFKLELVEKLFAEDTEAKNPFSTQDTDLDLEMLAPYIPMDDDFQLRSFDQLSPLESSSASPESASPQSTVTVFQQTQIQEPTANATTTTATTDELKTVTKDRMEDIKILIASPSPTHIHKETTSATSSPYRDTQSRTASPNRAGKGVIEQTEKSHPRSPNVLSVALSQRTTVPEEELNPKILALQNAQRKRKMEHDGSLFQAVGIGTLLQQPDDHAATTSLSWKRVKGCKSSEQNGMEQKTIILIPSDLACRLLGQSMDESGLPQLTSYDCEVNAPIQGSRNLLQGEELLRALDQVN
T1 sequence (P27540 whole entry, chain 2 of 2): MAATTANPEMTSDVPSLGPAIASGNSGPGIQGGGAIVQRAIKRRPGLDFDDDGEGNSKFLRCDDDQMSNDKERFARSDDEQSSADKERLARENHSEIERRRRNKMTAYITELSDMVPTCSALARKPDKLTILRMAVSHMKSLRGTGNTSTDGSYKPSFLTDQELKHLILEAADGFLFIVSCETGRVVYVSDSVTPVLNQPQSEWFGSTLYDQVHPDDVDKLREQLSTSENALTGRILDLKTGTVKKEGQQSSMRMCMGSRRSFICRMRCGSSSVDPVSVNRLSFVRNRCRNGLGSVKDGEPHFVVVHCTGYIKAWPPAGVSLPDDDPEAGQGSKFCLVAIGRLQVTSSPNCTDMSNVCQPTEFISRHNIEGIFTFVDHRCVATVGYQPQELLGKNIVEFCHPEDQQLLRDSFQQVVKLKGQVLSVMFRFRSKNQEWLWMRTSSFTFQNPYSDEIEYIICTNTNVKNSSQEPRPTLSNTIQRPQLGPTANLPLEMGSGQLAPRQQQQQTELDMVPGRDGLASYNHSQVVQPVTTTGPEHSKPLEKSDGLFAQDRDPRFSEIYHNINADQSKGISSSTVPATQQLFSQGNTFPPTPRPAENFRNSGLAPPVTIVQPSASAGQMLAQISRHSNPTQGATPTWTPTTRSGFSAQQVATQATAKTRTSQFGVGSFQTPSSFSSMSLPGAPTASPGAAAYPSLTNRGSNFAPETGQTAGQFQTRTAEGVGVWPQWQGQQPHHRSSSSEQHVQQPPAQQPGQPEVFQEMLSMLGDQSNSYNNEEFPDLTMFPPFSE

B1: wild type HRE (OL568/OL569) (dsDNA)
DNA 1: AGCTTGCCCTACGTGCTGTCTCAGA
DNA 2: TCTGAGACAGCACGTAGGGCAAGCT
Turning to B1, in series [1], the binding result is listed as “binds”.

B2: mutated HRE (OL570/OL571) (dsDNA)
DNA 1: AGCTTGCCCTAGCTGCTGTCTCAGA
DNA 2: TCTGAGACAGCAGCTAGGGCAAGCT
For the molecule B2, the binding result in series [2] is given as “no binding”.

Values taken from article PMC3319868.
